Data published in CN114591431A (MEISWEI SHANGHAI BIOTECHNOLOGY CO LTD, dated 2022).

T1: 重组人Protein S his 蛋白(R&D，Cat# 9489-PS) (human, UniProt P07225 42-676, limits assumed)
T1 construct: Bought protein; not shown: His tag
T1 sequence (looked up): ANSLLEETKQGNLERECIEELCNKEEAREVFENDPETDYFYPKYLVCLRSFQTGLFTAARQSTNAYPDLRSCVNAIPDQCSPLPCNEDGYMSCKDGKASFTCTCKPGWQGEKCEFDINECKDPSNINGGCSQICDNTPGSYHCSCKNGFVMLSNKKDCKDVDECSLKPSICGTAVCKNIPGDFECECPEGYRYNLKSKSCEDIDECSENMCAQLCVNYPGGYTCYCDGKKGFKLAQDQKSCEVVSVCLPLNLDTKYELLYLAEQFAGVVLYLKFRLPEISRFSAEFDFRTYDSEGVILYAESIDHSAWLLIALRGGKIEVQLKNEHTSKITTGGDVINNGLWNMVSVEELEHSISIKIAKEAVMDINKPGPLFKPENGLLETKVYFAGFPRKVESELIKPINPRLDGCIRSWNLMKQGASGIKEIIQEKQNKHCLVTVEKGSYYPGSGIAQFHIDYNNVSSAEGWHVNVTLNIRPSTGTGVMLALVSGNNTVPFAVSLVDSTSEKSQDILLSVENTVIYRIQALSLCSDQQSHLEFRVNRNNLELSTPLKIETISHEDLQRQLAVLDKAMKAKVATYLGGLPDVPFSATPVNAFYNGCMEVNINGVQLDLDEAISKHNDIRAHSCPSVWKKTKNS

T2: 鼠GAS6 his蛋白(Sino Biological，Cat#58026-M08H) (mouse, UniProt Q61592 28-674)
T2 construct: Bought protein; also called 小鼠 GAS6; not shown: His tag
T2 sequence (looked up): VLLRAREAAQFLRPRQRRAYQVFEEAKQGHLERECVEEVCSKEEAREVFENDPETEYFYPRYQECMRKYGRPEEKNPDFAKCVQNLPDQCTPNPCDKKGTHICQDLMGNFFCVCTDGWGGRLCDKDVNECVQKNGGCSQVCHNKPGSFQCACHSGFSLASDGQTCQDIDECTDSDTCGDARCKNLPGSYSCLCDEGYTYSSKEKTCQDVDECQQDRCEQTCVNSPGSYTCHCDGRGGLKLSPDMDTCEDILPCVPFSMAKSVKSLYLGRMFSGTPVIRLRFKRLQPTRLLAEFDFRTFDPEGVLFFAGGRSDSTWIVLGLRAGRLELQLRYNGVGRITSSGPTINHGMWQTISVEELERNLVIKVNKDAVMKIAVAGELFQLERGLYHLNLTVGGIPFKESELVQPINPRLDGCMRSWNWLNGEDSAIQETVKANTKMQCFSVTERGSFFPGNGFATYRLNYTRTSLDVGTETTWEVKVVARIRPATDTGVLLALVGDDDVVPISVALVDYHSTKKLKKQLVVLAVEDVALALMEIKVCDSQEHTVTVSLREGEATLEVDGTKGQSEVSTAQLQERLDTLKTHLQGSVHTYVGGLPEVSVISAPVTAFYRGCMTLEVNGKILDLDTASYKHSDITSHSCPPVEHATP

T3: 重组人GAS6 his 蛋白(Novoprotein，Cat#C01W) (human, UniProt Q14393 31-678, limits assumed)
T3 construct: Bought protein; not shown: His tag
T3 sequence (looked up): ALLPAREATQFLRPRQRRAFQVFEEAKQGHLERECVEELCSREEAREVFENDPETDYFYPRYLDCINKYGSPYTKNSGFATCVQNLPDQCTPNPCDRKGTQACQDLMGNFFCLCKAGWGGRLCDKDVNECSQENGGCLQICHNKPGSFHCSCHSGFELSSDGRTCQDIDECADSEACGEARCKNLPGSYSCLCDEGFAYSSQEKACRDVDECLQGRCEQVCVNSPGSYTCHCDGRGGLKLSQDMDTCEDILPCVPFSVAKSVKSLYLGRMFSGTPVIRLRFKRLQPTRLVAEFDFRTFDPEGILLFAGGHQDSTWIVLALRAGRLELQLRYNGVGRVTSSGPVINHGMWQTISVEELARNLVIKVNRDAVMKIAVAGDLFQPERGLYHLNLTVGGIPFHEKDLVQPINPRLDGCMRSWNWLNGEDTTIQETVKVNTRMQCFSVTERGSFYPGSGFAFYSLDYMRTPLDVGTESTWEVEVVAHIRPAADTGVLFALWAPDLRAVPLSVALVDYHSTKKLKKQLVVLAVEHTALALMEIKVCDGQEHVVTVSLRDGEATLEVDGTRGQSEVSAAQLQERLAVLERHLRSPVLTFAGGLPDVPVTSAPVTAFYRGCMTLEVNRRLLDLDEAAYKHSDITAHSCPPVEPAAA


What was measured:
[1] = molecular target: T1, 重组人Protein S his 蛋白(R&D，Cat# 9489-PS); assay: ELISA, coated human Protein S his 1 ug/ml
鼠GAS6 his蛋白(Sino …) = molecular target: T2, 鼠GAS6 his蛋白(Sino …); assay: ELISA, coated mouse GAS6 his 0.5 ug/ml
[2] = molecular target: T3, 重组人GAS6 his 蛋白(Novoprotein，Cat#C01W); assay: ELISA, coated human GAS6 his 0.5 ug/ml

Binder	EC50 [1]	EC50 (鼠GAS6 his蛋白(Sino …))	EC50 [2]
ch18I16C6 (antibody, human IgG1, kappa, V domains shown, Human-mouse chimeric antibody, hIgG1 (G1m3) / human kappa (Km3), made in HEK293; also called ch18I16C6-IgG) VH: EVKIEESGGGLVKPGGSLKLSCAASGFTFSSYAMSWFRQTPEKRLEWVASISSGGNSYYPDSVKGRFTISRDNARNILYLQMSSLRSEDTAMYYCSRTPDYWGQGTTVTVSS VL: DVVMTQSPSSMCASLGERVTITCKASQDINTYLSWFQQKPGKSPKTLIYRANRLVDGVPSRFSGSGSGQDYSLTISSLEYEDMGIYYCLQYDEFPFTFGSGTKLEIKR	0.008 nM	0.1 nM	0.11 nM
ch11B11D12 (antibody, human IgG1, kappa, V domains shown, Human-mouse chimeric antibody, hIgG1 (G1m3) / human kappa (Km3), made in HEK293; also called ch11B11D12-IgG) VH: QVQLQQSGAELAKPGASVKMSCKASGYTFTRYWIHWVKQRPGQGLEWIGYIIPSTGYTEYSQRFKDKATLTADKSSNTAYMQLSSLTSEDSAVYYCTRYYRYAKYVMDYWGQGTTVTVSS VL: not shown	–	0.15 nM	0.18 nM
ch2D3C6 (antibody, human IgG1, kappa, V domains shown, Human-mouse chimeric antibody, mouse VH/VL cloned into pTT5_hIgG1.G1m3 / pTT5_hKappa.Km3, made in HEK293; also called ch2D3C6-IgG) VH: DIQLQESGPGLVKPSQSLSLTCSVTGYSITNGYYWNWIRQFPGNKLEWMGYISYDGTNNYNPSLKNRISITRDTSKNQFFLKLNSVTTEDTATYYCARRALWYYAMDYWGQGTSVTVSS VL: DIVMTQSPASLAVSLGQRATISCKASQSVDYDGESYMNWYQQKPGQPPKLLIYVASNLESGIPARFSGSGSGTDFTLNIHPVEEEDAATYYCQQSDEDPYTFGGGTKLEIKR	–	1.42 nM	0.19 nM

Continued by falling EC50 (鼠GAS6 his蛋白(Sino …)), values first:

EC50 [1]	EC50 (鼠GAS6 his蛋白(Sino …))	EC50 [2]	Binder
0.2 nM	4.94 nM	0.16 nM	ch15G5E5 (antibody, human IgG1, kappa, V domains shown, Human-mouse chimeric antibody, hIgG1 (G1m3) / human kappa (Km3), made in HEK293; also called ch15G5E5-IgG) VH: EVQLQQSGPELVKPGASVKMSCKASGYTFTDDYMKWVKQSHGKSLEWIGDINPNNGGTIYNQKFKGKAILTVDKSSSTAYMQLNSLTSEDSAVYYCARRGRGSWGQGTTVTVSS VL: DVLMTQTPLSLPVSLGDQASISCRSSQSIVYSNGNTYLEWYLQKPGQSPKLLIYRVSNRFSGVPDRFSGSGSGTDFTLKISRVEAEDLGIYYCFQGSHVPLTFGAGTKLELKR
0.025 nM	0.22 nM	0.21 nM	ch2O18G6 (antibody, human IgG1, kappa, V domains shown, Human-mouse chimeric antibody, hIgG1 (G1m3) / human kappa (Km3), made in HEK293; also called ch2O18G6-IgG) VH: QVQLQQSGPELVKPGASVKISCKTSGNTFTEYIMHWVKQSHGKSLEWIGGINPKNGGTSYNQKFKGKATLTVDKSSRTAYMELRSLTSEDSAVYYCARVRIPPYVYYAMDYWGQGTTVTVSS VL: DVVVTQTPLSLPVSLGDQASISCRSSQSIVHSNGNTYLEWYLQKPGQSPKLLIYKVSNRFSGVPDRFSGSGSGTDFTLKISRVEAEDLGVYYCFQGSHVPYTFGGGTKLEIKR
